From publication PMC6174099

Molecular target: T1, Heat shock factor 1 (HSF1), wild-type, monomer (human), Q00613
T1 chain: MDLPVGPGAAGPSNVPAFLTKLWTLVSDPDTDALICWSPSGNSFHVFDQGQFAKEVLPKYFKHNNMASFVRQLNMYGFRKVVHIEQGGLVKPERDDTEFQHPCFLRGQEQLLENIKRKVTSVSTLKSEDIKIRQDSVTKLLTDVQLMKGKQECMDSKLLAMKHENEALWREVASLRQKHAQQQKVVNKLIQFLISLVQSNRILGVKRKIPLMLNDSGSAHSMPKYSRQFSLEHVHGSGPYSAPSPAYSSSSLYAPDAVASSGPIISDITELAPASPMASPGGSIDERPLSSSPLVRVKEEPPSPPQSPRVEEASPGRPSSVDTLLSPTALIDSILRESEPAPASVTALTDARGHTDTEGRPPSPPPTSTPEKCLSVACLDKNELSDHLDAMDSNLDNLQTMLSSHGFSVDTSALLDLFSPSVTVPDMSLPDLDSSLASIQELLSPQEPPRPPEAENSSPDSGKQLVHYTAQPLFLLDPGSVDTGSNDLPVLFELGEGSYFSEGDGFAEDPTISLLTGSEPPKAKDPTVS
Test: SEC
Settings: remark: other sources report otherwise

B1: Heat shock factor 1 (HSF1), wild-type, monomer, Q00613 1-529 (natural protein)
chain: T1 chain
  stoichiometry N: 3
